Measured values published in patent US20140227251A1 (AbbVie / Abbott, published 2014).

Molecular target: T1, Human TNF-α (R&D Systems) (human, UniProt P01375 77-233, labeled with Alexa Fluor 647 in the FACS assays)
T1 construct: also called Alexa Fluor 647-labeled TNF-α; TNF-α-AF647
Experiment: surface plasmon resonance (Biacore)

T1 sequence (P01375 77-233 limits assumed): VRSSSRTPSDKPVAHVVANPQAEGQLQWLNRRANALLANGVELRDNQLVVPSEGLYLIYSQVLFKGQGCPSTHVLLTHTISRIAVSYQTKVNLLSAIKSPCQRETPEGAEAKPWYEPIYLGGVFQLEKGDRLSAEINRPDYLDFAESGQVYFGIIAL

Row | binding result | Binder
1 | binds | D2E7 combination variant Y32K/SS-R30I (antibody, V domains shown, VL-SS backbone = G28S and A34S in CDR-L1 (Kabat); Expressed and purified variant antibody; also called Y2K in CDR-H1 with G5S, R7I and A11S in CDR-L1) VH: not shown VL: DIQMTQSPSSLSASVGDRVTITCRASQSIINYLSWYQQKPGKAPKLLIYAASTLQSGVPSRFSGSGSGTDFTLTISSLQPEDVATYYCQRYNRAPYTFGQGTKVEIK
2 | binds | D2E7 combination variant Y32K/SS-R30T (antibody, V domains shown, VL-SS backbone = G28S and A34S in CDR-L1 (Kabat); Expressed and purified variant antibody; also called Y2K in CDR-H1 with G5S, R7T and A11S in CDR-L1) VH: not shown VL: DIQMTQSPSSLSASVGDRVTITCRASQSITNYLSWYQQKPGKAPKLLIYAASTLQSGVPSRFSGSGSGTDFTLTISSLQPEDVATYYCQRYNRAPYTFGQGTKVEIK
